Source: paper PMC3626232 (The Journal of biological chemistry, 2000)

Columns and labels:
[1] = biological target: the molecule itself; assay: SEC
[2] = biological target: XMcm(2+4+6+7) tetramer (Xenopus (endogenous in Xenopus egg …, UniProt P55861 1-886; P30664 1-863; Q5FWY4 1-821; Q91876 1-720); assay: SEC
XMcm(2+4+6+7) tetramer (Xenopus, sequence (P30664 whole entry, chain 2 of 2): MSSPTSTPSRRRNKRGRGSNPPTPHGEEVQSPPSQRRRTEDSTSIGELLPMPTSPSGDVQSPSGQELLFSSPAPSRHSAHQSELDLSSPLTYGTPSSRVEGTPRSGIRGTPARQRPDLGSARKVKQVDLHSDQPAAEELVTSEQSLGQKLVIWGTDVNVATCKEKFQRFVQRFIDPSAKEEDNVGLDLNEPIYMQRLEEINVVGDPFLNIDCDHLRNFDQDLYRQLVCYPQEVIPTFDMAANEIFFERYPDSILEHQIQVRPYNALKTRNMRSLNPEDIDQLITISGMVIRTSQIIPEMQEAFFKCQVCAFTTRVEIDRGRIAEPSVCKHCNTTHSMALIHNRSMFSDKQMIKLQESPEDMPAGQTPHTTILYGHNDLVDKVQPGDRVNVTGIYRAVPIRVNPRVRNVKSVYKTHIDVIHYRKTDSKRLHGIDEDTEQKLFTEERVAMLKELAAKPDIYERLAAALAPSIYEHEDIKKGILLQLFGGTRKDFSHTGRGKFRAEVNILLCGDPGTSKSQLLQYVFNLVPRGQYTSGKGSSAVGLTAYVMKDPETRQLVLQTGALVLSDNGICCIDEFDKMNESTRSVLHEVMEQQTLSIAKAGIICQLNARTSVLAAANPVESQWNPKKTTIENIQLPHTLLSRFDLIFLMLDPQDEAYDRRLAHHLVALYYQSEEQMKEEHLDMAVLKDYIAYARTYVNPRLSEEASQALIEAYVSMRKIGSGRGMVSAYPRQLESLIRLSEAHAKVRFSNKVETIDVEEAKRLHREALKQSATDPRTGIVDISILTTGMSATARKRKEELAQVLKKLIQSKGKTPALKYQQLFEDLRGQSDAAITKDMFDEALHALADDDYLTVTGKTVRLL
XMcm(2+4+6+7) tetramer (Xenopus, sequence (Q5FWY4 whole entry, chain 3 of 2): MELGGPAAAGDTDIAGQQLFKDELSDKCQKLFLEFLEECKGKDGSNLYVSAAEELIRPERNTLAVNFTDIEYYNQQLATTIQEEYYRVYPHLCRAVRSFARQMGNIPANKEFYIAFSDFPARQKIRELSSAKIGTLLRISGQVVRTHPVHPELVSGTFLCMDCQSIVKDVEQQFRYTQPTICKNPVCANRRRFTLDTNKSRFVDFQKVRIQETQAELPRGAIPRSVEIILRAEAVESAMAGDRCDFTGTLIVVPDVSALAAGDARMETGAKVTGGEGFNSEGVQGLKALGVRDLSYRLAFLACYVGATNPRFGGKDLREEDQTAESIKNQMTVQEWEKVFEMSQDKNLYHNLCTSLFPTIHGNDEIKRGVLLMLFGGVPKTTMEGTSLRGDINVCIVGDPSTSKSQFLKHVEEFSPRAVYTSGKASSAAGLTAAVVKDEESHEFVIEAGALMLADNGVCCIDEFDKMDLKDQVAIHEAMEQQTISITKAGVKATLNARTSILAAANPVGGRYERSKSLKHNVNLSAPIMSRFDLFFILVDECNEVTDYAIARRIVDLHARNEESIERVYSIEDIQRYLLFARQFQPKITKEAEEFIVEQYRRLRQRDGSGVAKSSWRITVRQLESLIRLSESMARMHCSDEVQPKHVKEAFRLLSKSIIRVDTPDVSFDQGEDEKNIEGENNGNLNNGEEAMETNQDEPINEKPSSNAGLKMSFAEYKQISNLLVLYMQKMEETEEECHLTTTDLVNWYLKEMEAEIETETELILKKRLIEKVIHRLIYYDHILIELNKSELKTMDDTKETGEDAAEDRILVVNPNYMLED

B1: XMcm2 (natural protein, UniProt P55861 1-886, looked up)
chain: MADSSESFNIATSPRAGSRRDALTSSPGRDLPPFEDESEGMFGDGVVPEEEEDGEELIGDAMERDYRPISELDRYEVEGLDDEEDVEDLTASQREAAEQSMRMRDREMGRELGRMRRGLLYDSDEEEEDRPARKRRMAERAAEGAPEEDEEMIESIENLEDMKGHTVREWVSMAATRLEIYHRFKNFLRTHVDEHGHNVFKEKISDMCKENKESLPVNYEDLAAREHVLAYFLPEAPAEMLKIFDEAAKEVVLVMYPKYDRIAREIHVRISHLPLVEELRSLRQLHLNQLIRTSGVVTCCTGVLPQLSMVKYNCNKCNFILGPFFQSQNQEVRPGSCPECQSFGPFEINMEETVYQNYQRITIQESPGKVAAGRLPRSKDAILLADLVDSCKPGDEIELTGIYHNNYDGSLNTANGFPVFATVILANHITKKDDKVAVGELTDEDVKAIVALSKDERIGERIFASIAPSIYGHEDIKRGLALALFGGEAKNPGGKHKVRGDINVLLCGDPGTAKSQFLKYVEKVASRAVFTTGQGASAVGLTAYVQRHPVTKEWTLEAGALVLADRGVCLIDEFDKMNDQDRTSIHEAMEQQSISISKAGIVTSLQARCTVIAASNPIGGRYDPSLTFSENVDLTEPIVSRFDILCVVRDTVDPVQDEMLARFVVSSHIKHHPSSKDIANGDAAEFALPNTFGVEALPQEVLKKYIMYAKEKIRPKLNQMDQDKVAKMYSDLRKESMATGSIPITVRHIESMIRMAEAHARMHLRDYVVEDDVNMAIRVMLESFIDTQKFSVMRSMRKTFARYLAFRRDNNELLLFVLKQLIAEQVTYQRNRYGAQQDTIEVPEKDLVDKARQINIHNLSAFYDSDLFKMNKFTHDVKKKLIIQQF
[1]
  stoichiometry N: 2

B2: XMcm(3+7) hetero-dimer (complex)
chain 1: MDYGGGFEDHELREAQREYLDFLDDDQDQGLYHGKVRDMIGSNEHRLIVNLNDVRRKNDKRANLMLNDAFAETIAFQRALKDLVASIDATYAKQFEEFSVGFEGSFGSKHVSPRTLTASLLGSLVCVEGIVTKCSLVRPKVMRSVHYCPATKKTLERKYSDLTSLEAFPSSSIYPTKDEENNPLETEYGLSTYKDHQTLSIQEMPEKAPAGQLPRSVDIIADDDLVDKCKPGDRVQIVGIYRCLPSKQGGFTSGTFRTILLANNIKLMSKEIAPTFSADDVAKIKKFCKAHSKDIFEHLSKSLAPSIHGHEYIKKAILCMLLGGNEKVLENGTRIRGDINVLLIGDPSVAKSQLLRYVLHTAPRAIPTTGRGSSGVGLTAAVTTDQETGERRLEAGAMVLADRGVVCIDEFDKMSDMDRTAIHEVMEQGRVTIAKAGIQARLNARCSVLAAANPVYGRYDQYRTPMENIGLQDSLLSRFDLLFIVLDKMDADNDQEIADHVLRMHRYRTPGEQDGYALPLGCSVEIFATDDPNASDVTDQELQIYEKHDNLLHGPRKNKSKIVSMQFIRKYIHVAKLIKPVLTSEAADYISQEYAKIRNHDQINNDSARTMPVTARALETMIRLSTAHAKVRMSKTIERQDAETALELVQFAYFKKVLAKEKKKTDKDLHDENLSQDTLSQESVRKSSRRAGKIADSQDDSMDPYSFSEQDSSLNENLSQSLRPQRKKAESQDGKRSLSQNRTKEFKAALLKAFKSSRSQSVAVSQLLELINKGNPEPFERSEVKEALDNMQNDNQVMVSEDVVFLI
chain 2: MPRDYQTEKEKCKTFLQEFYKDDEIGKKHFKYGVQLANIAHREQVALYIDLDDLAEEDPELVDAICENTRRYTNLFADAVQELLPQYKEREVVHKDALDVYIEHRLMMEQRGRDPNEMRDSQNQYPPELMRRFELYFKAPSSSKARVVRDVKADSIGKLVNIRGIVTRVTEVKPMMVVATYTCDQCGAETYQPIQSPTFMPLIMCPSRECQTNRSGGRLYLQTRGSKFIKFQELKIQEHSDQVPVGNIPRCMSVYVRGENTRLAQPGDHVGITGVFLPMLRTGFRQVVQGLLSETYLECHRLVKMNKSEDDELGTEELSEEELRQITEEDFYEKLAASIAPEIYGHEDVKKALLLLLVGGVDNSPRGMKIRGNINICLMGDPGVAKSQLLSYIDRLAPRSQYTTGRGSSGVGLTAAVMKDPVTGEMTLEGGALVLADQGVCCIDEFDKMMDTDRTAIHEVMEQQTISIAKAGIMTTLNARCSILAAANPAYGRYNPKKTVEQNIQLPAALLSRFDVLWLIQDKPDRDNDLRLAQHITYVHQHSKQPPSQFQPLDMKLMRRYITMCKRKQPAIPEALADYLTAAYVEMRKEARTNKDMTFTSARTLLSVLRLSTALARLRLEDVVEKEDVNEAMRLMEMSKDSLLGDKGHTSRTQRPADVIFSTIREMVPEKGARSVKYSEAEQRCVSKGFTPAQFEAALEEYEELNVWLVNQARTKITFV
[2]
  binding result: binds
